Measured values published in US20200262920A1 (AMPHIVENA THERAPEUTICS, published 2020).
Values joined by “and” are separate entries in the source; they are usually repeats but may differ in a detail not shown here. Equal values may be shown once.

Legend:
[1] = biological target: T1, human CD3 (human, UniProt P07766 23-207; P09693 23-182; P04234 22-171; P20963 22-164); experiment: flow cytometry, human T-cells
T1 construct: whole, on cells; the description names the epsilon chain only 'in certain instances'; also called hu CD3; CD3 on T cells

[2] = biological target: T1, human CD3; experiment: cell-based or functional assay
[3] = biological target: T2, human CD33 (human, UniProt P20138 18-364); experiment: flow cytometry titration, KG-1 cells
T2 construct: whole, on cells; also called huCD33; CD33 on HL-60, KG-1, KG-1a, U-937 cells
Experimental: (§1) Cells were incubated with 100 μL of serial dilutions of CD33/CD3 2×2 T-cell engagers. After washing three times with FACS buffer the cells were incubated with 0.1 mL of 10 μg/mL mouse monoclonal anti-His antibody in the same buffer for 45 min on ice. After a second washing cycle, the cells were incubated with 0.1 mL of 15 μg/mL FITC-conjugated goat anti-mouse IgG antibodies under the same conditions as before. As a control, cells were incubated with the anti-His IgG followed by the FITC-conjugated goat anti-mouse IgG antibodies without anti-CD33 2×2 T-cell engagers. The cells were then washed again and resuspended in 0.2 mL of FACS buffer containing 2 μg/mL propidium iodide (PI) in order to exclude dead cells. The fluorescence of 1×10⁴ living cells was measured using a Beckman-Coulter FC500 MPL flow cytometer using the MXP software (Beckman-Coulter, Krefeld, Germany) or a Millipore Guava EasyCyte flow cytometer using the Incyte software (Merck Millipore, Schwalbach, Germany). Mean fluorescence intensities of the cell samples were calculated using CXP software (Beckman-Coulter, Krefeld, Germany) or Incyte software (Merck Millipore, Schwalbach, Germany). After subtracting the fluorescence intensity values of the cells stained with the secondary and tertiary reagents alone the values were used for calculation of the KD values with the equation for one-site binding (hyperbola) of the GraphPad Prism (version 6.00 for Windows, GraphPad Software, La Jolla Calif. USA). […]

[4] = biological target: T2, human CD33; experiment: flow cytometry titration, HL-60 cells
Experimental: as §1

[5] = biological target: T2, human CD33; experiment: cell-based or functional assay
[6] = biological target: T1, human CD3; experiment: flow cytometry titration, T cells (human CD3+)
[7] = biological target: T2, human CD33; experiment: cell-based or functional assay; remark: listed apart in the source
[8] = biological target: T2, human CD33; experiment: flow cytometry, HL-60 cells
[9] = biological target: T2, human CD33; experiment: flow cytometry titration, U-937 cells
Experimental: as §1

[10] = biological target: T3, cynomolgus CD33 (cynomolgus, UniProt A0A7N9ICR5 17-359); experiment: ratio of KD by flow cytometry on CHO cells expressing cynomolgus CD33 vs human CD33
T3 construct: whole, on cells; also called cynoCD33; cyno CD33
Experimental: Cells were incubated with 100 μL of serial dilutions of CD33/CD3 2×2 T-cell engagers. After washing three times with FACS buffer the cells were incubated with 0.1 mL of 10 μg/mL mouse monoclonal anti-His antibody in the same buffer for 45 min on ice. After a second washing cycle, the cells were incubated with 0.1 mL of 15 μg/mL FITC-conjugated goat anti-mouse IgG antibodies under the same conditions as before. As a control, cells were incubated with the anti-His IgG followed by the FITC-conjugated goat anti-mouse IgG antibodies without anti-CD33 2×2 T-cell engagers. The cells were then washed again and resuspended in 0.2 mL of FACS buffer containing 2 μg/mL propidium iodide (PI) in order to exclude dead cells. The fluorescence of 1×10⁴ living cells was measured using a Beckman-Coulter FC500 MPL flow cytometer using the MXP software (Beckman-Coulter, Krefeld, Germany) or a Millipore Guava EasyCyte flow cytometer using the Incyte software (Merck Millipore, Schwalbach, Germany). Mean fluorescence intensities of the cell samples were calculated using CXP software (Beckman-Coulter, Krefeld, Germany) or Incyte software (Merck Millipore, Schwalbach, Germany). After subtracting the fluorescence intensity values of the cells stained with the secondary and tertiary reagents alone the values were used for calculation of the KD values with the equation for one-site binding (hyperbola) of the GraphPad Prism (version 6.00 for Windows, GraphPad Software, La Jolla Calif. USA).
CD3 binding affinity and crossreactivity were evaluated in titration and flow cytometric experiments on CD3⁺ Jurkat cells (provided by Dr. Moldenhauer, DKFZ Heidelberg; human acute T-cell leukemia) and the cynomolgus CD3⁺ HSC-F cell line (JCRB, cat.:JCRB 1164). […] The KD ratio of crossreactivity was calculated using the KD values determined on the CHO cell lines expressing either recombinant human or recombinant cynomolgus antigens.

T2 sequence (P20138 18-364): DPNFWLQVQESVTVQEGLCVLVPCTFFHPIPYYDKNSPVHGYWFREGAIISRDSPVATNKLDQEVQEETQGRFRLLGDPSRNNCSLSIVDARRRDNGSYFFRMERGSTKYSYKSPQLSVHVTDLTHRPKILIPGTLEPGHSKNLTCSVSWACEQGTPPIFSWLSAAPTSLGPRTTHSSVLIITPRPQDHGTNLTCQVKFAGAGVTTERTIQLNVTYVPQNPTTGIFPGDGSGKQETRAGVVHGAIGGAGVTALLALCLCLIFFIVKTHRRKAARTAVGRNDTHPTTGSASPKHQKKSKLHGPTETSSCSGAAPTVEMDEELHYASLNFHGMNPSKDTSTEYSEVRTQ
T1 sequence (P07766 23-207, chain 1 of 4): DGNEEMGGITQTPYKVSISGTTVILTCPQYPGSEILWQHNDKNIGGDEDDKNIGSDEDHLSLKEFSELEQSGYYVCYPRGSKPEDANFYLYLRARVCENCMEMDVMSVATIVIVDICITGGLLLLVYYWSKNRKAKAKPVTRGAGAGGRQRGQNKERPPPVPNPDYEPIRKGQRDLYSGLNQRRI
T1 sequence (P09693 23-182, chain 2 of 4): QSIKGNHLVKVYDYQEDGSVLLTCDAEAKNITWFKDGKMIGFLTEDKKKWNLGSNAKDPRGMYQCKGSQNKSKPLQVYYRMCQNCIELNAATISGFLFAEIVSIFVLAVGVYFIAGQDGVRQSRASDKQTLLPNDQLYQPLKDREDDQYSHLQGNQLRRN
T1 sequence (P04234 22-171, chain 3 of 4): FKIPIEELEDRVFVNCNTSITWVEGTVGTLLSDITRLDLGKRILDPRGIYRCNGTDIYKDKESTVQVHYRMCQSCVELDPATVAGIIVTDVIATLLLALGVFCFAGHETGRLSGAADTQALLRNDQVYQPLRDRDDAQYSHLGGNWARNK
T1 sequence (P20963 22-164, chain 4 of 4): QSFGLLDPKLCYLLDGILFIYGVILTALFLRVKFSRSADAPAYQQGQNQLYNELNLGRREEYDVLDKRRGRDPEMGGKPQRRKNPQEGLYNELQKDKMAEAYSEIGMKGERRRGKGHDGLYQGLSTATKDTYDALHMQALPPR

Binder | Kd [1] | CD25 Induction EC50 [2] | CD69 Induction EC50 [2] | T cell Proliferation in PBMC EC50 [2] | Kd [3] | Kd [4] | EC50 on HL-60 (cytotoxicity) [5] | Kd [6] | EC50, cytotoxicity on HL-60 [7] | EC50, cytotoxicity on KG-1 [7] | EC50, cytotoxicity on U-937 [7] | EC50, cytotoxicity, mean of HL-60, U-937, KG-1 [7] | Kd [8] | Kd [9] | KD ratio cynoCD33/huCD33 [10]
CD33/CD3 2×2 T-cell engager 14 (bispecific antibody, Non-covalent homodimer) DIQMTQSPSSLSASVGDRVTITCRSSTGAVTTSNYANWVQQKPGKAPKALIGGTNKRAPGVPSRFSGSLIGDKATLTISSLQPEDFATYYCALWYSNLWVFGQGTKVEIKGGSGGSQVQLVQSGAEVKKPGASVKVSCKASGYTFTSYDINWVRQAPGQGLEWMGWMNPNSGNTGFAQKFQGRVTMTRDTSTSTVYMELSSLRSEDTAVYYCARDRANTDFSYGMDVWGQGTLVTVSSGGSGQSVLTQPPSASGTPGQRVTISCSGSRSNIGSNTVNWYQQLPGTAPKLLIYGNNQRPSGVPDRFSGSKSGTSASLAISGLQSEDEADYYCATWDDSLIGWVFGGGTKLTVLGGSGGSEVQLVESGGGLVQPGGSLRLSCAASGFTFSTYAMNWVRQAPGKGLEWVGRIRSKYNNYATYYADSVKDRFTISRDDSKNSLYLQMNSLKTEDTAVYYCARHGNFGNSYVSYFAYWGQGTLVTVSSAAAGSHHHHHH | 2.1 nM | 10 pM | 7 pM | 6 pM | 0.3 nM | 0.3 nM | 1.6 pM | 2.1 nM | 1.6 pM and 168 pg/mL | 2.6 pM and 273 pg/mL | 3.6 pM and 378 pg/mL | 2.6 pM and 273 pg/mL | 0.3 nM | 1.2 nM | 
CD33/CD3 2×2 T-cell engager 20 (bispecific antibody, Non-covalent homodimer) DIQMTQSPSSLSASVGDRVTITCRSSTGAVTTSNYANWVQQKPGKAPKGLIGGTNKRAPGVPSRFSGSLIGTDFTLTISSLQPEDFATYYCALWYSNLWVFGQGTKVEIKGGSGGSQVQLVQSGAEVKKPGASVKVSCKASGYTFTSYYMHWVRQAPGQGLEWMGIINPSGGSTSYAQKFQGRVTMTRDTSTSTVYMELSSLRSEDTAVYYCARDVVPAAIDYYGMDVWGQGTTVTVSSGGSGQSVLTQPPSASGTPGQRVTISCSGSSSNIGSNTVNWYQQLPGTAPKLLIYSDNQRPSGVPDRFSGSKSGSSASLAISGLQSDDEADYYCATWDDSLNGAVFGGGTKLTVLGGSGGSEVQLVESGGGLVQPGGSLRLSCAASGFTFSTYAMNWVRQAPGKGLEWVGRIRSKYNNYATYYADSVKDRFTISRDDSKNSLYLQMNSLKTEDTAVYYCARHGNFGNSYVSWFAYWGQGTLVTVSSAAAGSHHHHHH | 144 nM | 98 pM | 75 pM | 38 pM | 7 nM | 4.1 nM | 10 pM | 144 nM |  |  |  |  | 4.1 nM | 7.2 nM | 33.8
CD33/CD3 2×2 T-cell engager 05 (bispecific antibody, Non-covalent homodimer; also called 2×2 T-cell engager 5) DIQMTQSPSSLSASVGDRVTITCRSSTGAVTTSNYANWVQQKPGKAPKGLIGGTNKRAPGVPARFSGSGSGTDFTLTISSLQPEDFATYYCALWYSNLWVFGQGTKVEIKGGSGGSQVQLVQSGAEVKKPGASVKVSCKASGYTFTSYDINWVRQAPGQGLEWMGWMNPNSGNTGFAQKFQGRVTMTRDTSTSTVYMELSSLRSEDTAVYYCARDRANTDYSFGMDVWGQGTLVTVSSGGSGGQSVLTQPPSASGTPGQRVTISCSGSRSNIGSNTVNWYQQLPGTAPKLLIYGNNQRPSGVPDRFSGSKSGTSASLAISGLQSEDEADYYCATWDDSLIGWVFGGGTKLTVLGGSGGSEVQLVESGGGLVQPGGSLRLSCAASGFTFSTYAMNWVRQAPGKGLEWVGRIRSKYNNYATYYADSVKDRFTISRDDSKNSLYLQMNSLKTEDTAVYYCARHGNFGNSYVSWFAYWGQGTLVTVSSAAAGSHHHHHH | 69.5 nM | 116 pM | 74 pM | 74 pM | 1.2 nM | 1 nM | 2.7 pM | 69.5 nM |  |  |  |  | 1 nM | 6.2 nM | 
CD33/CD3 2×2 T-cell engager 06 (bispecific antibody, Non-covalent homodimer; also called 2×2 T-cell engager 6) DIQMTQSPSSLSASVGDRVTITCRSSTGAVTTSNYANWVQQKPGKAPKGLIGGTNKRAPGVPARFSGSGSGTDFTLTISSLQPEDFATYYCALWYSNLWVFGQGTKVEIKGGSGGSQVQLVQSGAEVKKPGASVKVSCKASGYTFTSYDINWVRQAPGQGLEWMGWMNPNSGNTGFAQKFQGRVTMTRDTSTSTVYMELSSLRSEDTAVYYCARDRANTDYSLGMDVWGQGTLVTVSSGGSGGQSVLTQPPSASGTPGQRVTISCSGSRSNIGSNTVNWYQQLPGTAPKLLIYGNNQRPSGVPDRFSGSKSGTSASLAISGLQSEDEADYYCATWDDSLIGWVFGGGTKLTVLGGSGGSEVQLVESGGGLVQPGGSLRLSCAASGFTFSTYAMNWVRQAPGKGLEWVGRIRSKYNNYATYYADSVKDRFTISRDDSKNSLYLQMNSLKTEDTAVYYCARHGNFGNSYVSWFAYWGQGTLVTVSSAAAGSHHHHHH | 86.3 nM | 39 pM | 21 pM | 48 pM | 0.5 nM | 0.4 nM | 1.6 pM | 86.3 nM |  |  |  |  | 0.4 nM | 1.6 nM | 
CD33/CD3 2×2 T-cell engager 18 (bispecific antibody, Non-covalent homodimer) EVQLVESGGGLVQPGGSLRLSCAASGFTFSTYAMNWVRQAPGKGLEWVGRIRSKYNNYATYYADSVKDRFTISRDDSKNSLYLQMNSLKTEDTAVYYCARHGNFGNSYVSYFAYWGQGTLVTVSSGGSGGSQSVLTQPPSVSGAPGQRVTISCTGSSSNIGAGYDVHWYQQLPGTAPKLLIYGNSNRPSGVPDRFSGSKSGTSASLAITGLQAEDEADYYCQSYDSSLSDVVFGGGTKLTVLGGSGQVQLVQSGAEVKKPGESLKISCKGSGYSFTSYWIGWVRQMPGKGLEWMGIIYPGDSDTRYSPSFQGQVTISADKSISTAYLQWSSLKASDTAMYYCARHKRGSDAFDIWGQGTTVTVSSGGSGGSDIQMTQSPSSLSASVGDRVTITCRSSTGAVTTSNYANWVQQKPGKAPKALIGGTNKRAPGVPSRFSGSLIGDKATLTISSLQPEDFATYYCALWYSNLWVFGQGTKVEIKAAAGSHHHHHH |  |  |  |  | 16.3 nM | 3.4 nM | 6.3 pM | 1.9 nM |  |  |  |  |  | 15.1 nM | 3.1
CD33/CD3 2×2 T-cell engager 24 (bispecific antibody, Non-covalent homodimer) DIQMTQSPSSLSASVGDRVTITCRSSTGAVTTSNYANWVQQKPGKAPKALIGGTNKRAPGVPSRFSGSLIGDKATLTISSLQPEDFATYYCALWYSNLWVFGQGTKVEIKGGSGGSQVQLVQSGAEVKKPGSSVKVSCKASGGTFDSYAISWVRQAPGQGLEWMGGIIPIFGSAHYSQKFQGRVTITADESTSTAYMELSSLRSEDTAVYYCAREYYYDSSEWAFDIWGQGTLVTVSSGGSGQSVLTQPPSASGTPGQRVTISCSGSSSNIGDNVVNWYQQLPGTAPKLLIYSTNKRPSGVPDRFSGSKSGSSASLAISGLQSEDEADYYCAAWDDSLSAYVFGGGTKLTVLGGSGGSEVQLVESGGGLVQPGGSLRLSCAASGFTFSTYAMNWVRQAPGKGLEWVGRIRSKYNNYATYYADSVKDRFTISRDDSKNSLYLQMNSLKTEDTAVYYCARHGNFGNSYVSYFAYWGQGTLVTVSSAAAGSHHHHHH | 2.3 nM |  | 57 pM | 264 pM | 12.4 nM | 5.6 nM | 9.6 pM | 2.3 nM |  |  |  |  | 5.6 nM | 39.5 nM | 
